The values below come from publication PMC6641210 (2019).

For test [1], the target named is rabbit chimera of human IgG1 25G1 (human 25G1 variable regions on rabbit IgG heavy chain and rabbit kappa K2 light chain constant regions) (rabbit (Oryctolagus cuniculus)). The test can be described thus: SPR; antibody (5.3 nM) captured by its kappa light chain on a Protein L sensor chip, FcγRIIIA ECD injected as analyte; Biacore X100, 25°C, HBS-EP+ (0.01 M HEPES pH 7.4, 0.15 M NaCl, 3 mM EDTA, 0.05% P20); five-point titration in triplicate, 1:1 Langmuir binding model (kinetic). Background: Surface plasmon resonance follows binding to a sensor surface in real time, without labels.

Test [2] deals with ADCC-enhanced human IgG1 25G1 with S239D/I332E (human). Kind of test: SPR; Biacore X100, 25°C, HBS-EP+ (0.01 M HEPES pH 7.4, 0.15 M NaCl, 3 mM EDTA, 0.05% P20); antibody (5.3 nM) captured by its kappa light chain on a Protein L Sensor Chip, FcγRIIIA ECD injected 30 s at 30 µl/min; five-point titration in triplicate; kinetic fit, 1:1 Langmuir binding model.
Test [3] shares this target. The test can be described thus: SPR; Biacore X100, 25°C, HBS-EP+; antibody captured on a Protein L Sensor Chip, five-point titration of FcγRIIIA ECD in triplicate; steady-state affinity model.
Test [4] addresses chimeric rabbit IgG: variable regions of human 25G1 on rabbit IgG heavy and rabbit kappa (K2) light chain constant regions (human | rabbit (Oryctolagus cuniculus)). The test can be described thus: SPR; Biacore X100, 25°C, HBS-EP+ (0.01 M HEPES pH 7.4, 0.15 M NaCl, 3 mM EDTA, 0.05% P20); antibody (5.3 nM) captured by its kappa light chain on a Protein L Sensor Chip, FcγRIIIA ECD injected 30 s at 30 µl/min; five-point titration in triplicate; kinetic fit, 1:1 Langmuir binding model.

The target is the same in test [5]. Kind of test: SPR; Biacore X100, 25°C, HBS-EP+; antibody captured on a Protein L Sensor Chip, five-point titration of FcγRIIIA ECD in triplicate; steady-state affinity model.
Test [6] concerns the target ADCC-enhanced human IgG1 25G1 with S239D/I332E (human). Kind of test: SPR.

Chain of human FcγRIIIA-F158 (low affinity allele) extracellular domain fragment (receptor) (chain): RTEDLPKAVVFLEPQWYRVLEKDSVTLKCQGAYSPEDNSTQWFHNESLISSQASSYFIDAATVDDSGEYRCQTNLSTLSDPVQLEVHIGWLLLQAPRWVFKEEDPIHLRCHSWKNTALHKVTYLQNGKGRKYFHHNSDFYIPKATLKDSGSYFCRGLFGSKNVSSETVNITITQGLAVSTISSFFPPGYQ
Chain of human FcγRIIIA extracellular domain fragment, low affinity F158 variant (P08637 17-208, change not shown): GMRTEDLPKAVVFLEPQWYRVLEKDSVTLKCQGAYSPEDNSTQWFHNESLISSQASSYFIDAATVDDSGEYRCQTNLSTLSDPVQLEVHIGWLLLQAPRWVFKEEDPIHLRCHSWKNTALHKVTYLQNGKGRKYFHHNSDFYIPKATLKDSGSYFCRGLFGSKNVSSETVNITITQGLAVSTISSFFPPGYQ

The substance “human FcγRIIIA extracellular domain fragment, low affinity F158 variant (from UniProt P08637 17-208) (receptor)” had a difference of kinetic KD between hIgG1 and rIgG in test [1] of 24%.
With “rabbit FcγRIIIA extracellular domain fragment (receptor)”, in test [2], the dissociation constant Kd worked out at 148 nM, the dissociation rate constant (koff) stood at 0.27 s⁻¹ and the kon is 1.8e+06 M⁻¹ s⁻¹. In test [3], the dissociation constant (Kd) is 133 nM.
On to “human FcγRIIIA-F158 (low affinity allele) extracellular domain fragment (receptor)”, for which the Kd in test [4] was 773 nM; in test [2] it was 4.6 nM; in test [5], 792 nM. For the same substance, the koff in test [4] was determined as 0.14 s⁻¹; in test [2], 0.05 s⁻¹. The kon in test [4] amounted to 186000 M⁻¹ s⁻¹; in test [2], 1.16e+07 M⁻¹ s⁻¹.
With “human FcγRIIIA-V158 (high affinity allele) extracellular domain fragment (receptor)”, in test [6], the dissociation constant Kd amounted to 1.18 nM, the off-rate constant (koff) is 0.01 s⁻¹ and the kon was 1.01e+07 M⁻¹ s⁻¹.

A word on the Kd: it is the equilibrium constant for the complex coming apart. By koff is commonly meant the first-order rate constant of dissociation. By kon is commonly meant a measure of how fast the partners come together.
